# The supplement of paper PMC7877785
# ± gives the uncertainty stated by the source.
# Assay: self-splicing fitness, log relative to wild type (ln ratio); higher = more splicing; Tetrahymena group I intron in knt gene, E. coli kanamycin selection, DiMSum; sequences stand for … in CUCUCU…GGAGGGAAAAGUUAUCAGGCAUGCACCUGGUAGCUAGUCUUUAAACCAAUAGAUUGCAUCGGUUUAAAAGGCAAGACCGUCAAAUUGCGGGAAAGGGGUCAACAGCCGUUCAGUACCAAGUCUCAGGGGAAACUUUGAGAUGGCCUUGCAAAGGGUAUGGUAAUAAGCUGACGGACAUGGUCCUAACCACGCAGCCAAGUCCUAAGUCAACAGAUCUUCUGUUGAUAUGGAUGCAGUUCACAGACUAAAUGUCGGUCGGGGAAGAUGUAUUCUUCUCAUAAGAUAUAGUCGGACCUCUCCUUAAUGGGAGCUAGCGGAUGAAGUGAUGCAACACUGGAGCCGCUGGGAACUAAUUUGUAUGCGAAAGUAUAUUGAUUAGUUUUGGAGUACUCGUGGUCG
# How it was run: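 Colonies from six replicate transformations of E. coli BL21(DE3) were pooled and amplicon-sequenced on an Illumina HiSeq 2500. The library placed an intron with all eight P1ex-region nucleotides randomised inside the knt kanamycin-resistance gene on pET-22b(+), and cells grew overnight at 37°C or 30°C on LB agar with or without 25 μg/mL kanamycin (plus 100 μg/mL carbenicillin, 50 μM IPTG, 0.2% rhamnose). Fitness is the DiMSum error-weighted combination of wild-type-normalised replicate fold changes, kanamycin versus none.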
Sequence,self-splicing fitness (ln) (30 °C),self-splicing fitness (ln) (37 °C)
CUGUAGCAAUAUUACGAUGG,-2.74 ± 0.18,-1.81 ± 0.19
CUGUAGCAAUAUUACGAUGU,-5.35 ± 0.11,-5.09 ± 0.16
CUGUAGCAAUAUUACGCAGU,-2.29 ± 0.15,-3.65 ± 0.33
CUGUAGCAAUAUUACGCAUA,-2.83 ± 0.47,-2.43 ± 0.41
CUGUAGCAAUAUUACGCCGC,-2.54 ± 0.41,-1.08 ± 0.47
CUGUAGCAAUAUUACGGGGA,-2.67 ± 0.17,-2.9 ± 0.24
CUGUAGCAAUAUUACGGUAG,-2.9 ± 0.21,-1.98 ± 0.25
CUGUAGCAAUAUUACGUAAU,-3.88 ± 0.3,-3.29 ± 0.37
CUGUAGCAAUAUUACGUUAG,-2.72 ± 0.11,-1.77 ± 0.11
CUGUAGCAAUAUUACGUUCA,-3.47 ± 0.24,-1.45 ± 0.15
CUGUAGCAAUAUUACGUUUA,-3.7 ± 0.32,-2.51 ± 0.16
CUUAAGCAAUAUUACGAACU,,-2.61 ± 0.38
CUUAAGCAAUAUUACGAAUG,-0.541 ± 0.092,-0.0976 ± 0.12
CUUAAGCAAUAUUACGAAUU,-3.26 ± 0.22,-0.957 ± 0.17
CUUAAGCAAUAUUACGACCA,-3.3 ± 0.4,-2.04 ± 0.4
CUUAAGCAAUAUUACGACUG,0.139 ± 0.087,-0.589 ± 0.13
CUUAAGCAAUAUUACGAGCC,,-3.51 ± 0.48
CUUAAGCAAUAUUACGAUAA,,-3.18 ± 0.35
CUUAAGCAAUAUUACGAUUC,-4.19 ± 0.46,-2.07 ± 0.26

Sequence,self-splicing fitness (ln) (30 °C),self-splicing fitness (ln) (37 °C)
CUUAAGCAAUAUUACGCCGU,-3.13 ± 0.34,-1.88 ± 0.37
CUUAAGCAAUAUUACGCGAA,-2.82 ± 0.24,-2.82 ± 0.34
CUUAAGCAAUAUUACGCGCU,-3.35 ± 0.22,-2.5 ± 0.27
CUUAAGCAAUAUUACGCGGU,-2.59 ± 0.14,-2.35 ± 0.22
CUUAAGCAAUAUUACGGAUC,-1.71 ± 0.23,-2.11 ± 0.44
CUUAAGCAAUAUUACGGCGG,-1.25 ± 0.095,-0.194 ± 0.083
CUUAAGCAAUAUUACGGGAA,-2.9 ± 0.3,-2.85 ± 0.32
CUUAAGCAAUAUUACGGGCU,-3.84 ± 0.23,-2.98 ± 0.25
CUUAAGCAAUAUUACGGGGA,-3.46 ± 0.29,-2.16 ± 0.18
CUUAAGCAAUAUUACGGGUC,-4.47 ± 0.34,-2.98 ± 0.23
CUUAAGCAAUAUUACGUAGG,-2.58 ± 0.1,-1.35 ± 0.14
CUUAAGCAAUAUUACGUCGG,-1.66 ± 0.097,-0.424 ± 0.11
CUUAAGCAAUAUUACGUGGG,-4.03 ± 0.17,-2.26 ± 0.12
CUUAAGCAAUAUUACGUUCU,-2.91 ± 0.19,-2.14 ± 0.21
CUUCAGCAAUAUUACGAAAC,-0.955 ± 0.5,
CUUCAGCAAUAUUACGAAGU,-2.31 ± 0.17,-2.66 ± 0.38
CUUCAGCAAUAUUACGAAUU,-2.66 ± 0.19,-0.66 ± 0.13
CUUCAGCAAUAUUACGACCG,0.185 ± 0.083,-0.454 ± 0.12
CUUCAGCAAUAUUACGAGAA,,-0.0336 ± 0.41
